Data published in patent US20160024487A1, “THROMBIN SENSITIVE COAGULATION FACTOR X MOLECULES” (NOVO NORDISK A/S, priority 2013, published 2016).
“And” between values parts separate entries of the source, which are not always exact repeats. Equal values may be shown once. Where no end group is shown, it is not given here. The star is where a group is joined. Dnp = O=[N+]([O-])c1ccc(*)c([N+](=O)[O-])c1; 2Abz = Nc1ccccc1C(=O)O

Legend:
[1] = target: T1, Human plasma purified Factor Xa (Homo sapiens, UniProt P00742); test: Factor Xa cleavage kinetics of quenched fluorescence (QF) peptide substrates, progress curve; type: biochemical; details: for Specificity Ratio (FIIa/FXa): FIIa kcat/KM divided by FXa kcat/KM, natural sequence QF substrates; for specificity ratio: X4/X3 positional scanning QF library (Table 4), FIIa/FXa
T1 construct: purchased Molecular Innovations, Inc, Novi Mich., USA; host or cells: human plasma
T1 sequence (P00742 41-179 limits assumed): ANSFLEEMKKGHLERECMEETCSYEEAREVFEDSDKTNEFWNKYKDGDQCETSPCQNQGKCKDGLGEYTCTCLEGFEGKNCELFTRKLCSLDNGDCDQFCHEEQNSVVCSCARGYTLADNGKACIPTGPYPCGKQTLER
T1 sequence (P00742 235-488 limits assumed): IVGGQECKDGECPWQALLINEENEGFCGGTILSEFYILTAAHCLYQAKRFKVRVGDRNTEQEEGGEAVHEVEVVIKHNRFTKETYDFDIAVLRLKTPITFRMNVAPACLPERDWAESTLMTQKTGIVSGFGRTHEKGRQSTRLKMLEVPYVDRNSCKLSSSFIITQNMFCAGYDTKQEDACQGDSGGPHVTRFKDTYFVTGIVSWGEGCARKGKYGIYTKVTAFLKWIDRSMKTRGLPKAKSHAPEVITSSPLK

[2] = target: Human plasma purified α-thrombin (Homo sapiens, UniProt P00734); test: Thrombin cleavage kinetics of quenched fluorescence (QF) peptide substrates, progress curve; type: biochemical; details: for Fold-Improved (FpA): kcat/KM relative to FpA substrate Lys(Dnp)-DFLAEGGGVRIVGG-Lys(Abz); for Fold-Improved (PAR-1): kcat/KM relative to PAR 1 control substrate Lys(Dnp)-ATNATLDPRIVGG-Lys(Abz)

Specificity Ratio (FIIa/FXa) [1] | Fold-Improved (FpA) [2] | Fold-Improved (PAR-1) [2] | specificity ratio [1] [fold] | Substance
121 | – | – | – | Lys(Dnp)-DFLAEGGGVRIVGG-Lys(Abz) (K(Dnp)DFLAEGGGVRIVGGK(2Abz)) [FpA, reference compound]
6914 | 97.8 | 14.2 | – | FpA_P: QF substrate Lys(Dnp)-X10-X1-IVGG-Lys(Abz), X10-X1 = DFLAEGGGPR; FpA with proline at X2 (K(Dnp)DFLAEGGGPRIVGGK(2Abz))
16 | 13.1 | 1.9 | – | TAFI: QF substrate Lys(Dnp)-X10-X1-IVGG-Lys(Abz), X10-X1 = QISNDTVSPR (K(Dnp)QISNDTVSPRIVGGK(Abz))
– | – | – | ~300 | MTPR: QF library substrate Lys(Dnp)-ATNATX4X3PRIVGG-Lys(Abz) with X4-X1 = MTPR (K(Dnp)ATNATMTPRIVGGK(2Abz))
2 | 77.2 | 11.2 | – | Factor V (1): QF substrate Lys(Dnp)-X10-X1-IVGG-Lys(Abz), X10-X1 = HTHHAPLSPR (K(Dnp)HTHHAPLSPRIVGGK(Abz))
559 | 49.2 | 7.1 | – | Factor XI: QF substrate Lys(Dnp)-X10-X1-IVGG-Lys(Abz), X10-X1 = NESTTKIKPR (K(Dnp)NESTTKIKPRIVGGK(2Abz))
133 | 4.4 | 0.6 | – | Protein C: QF substrate Lys(Dnp)-X10-X1-IVGG-Lys(Abz), X10-X1 = EDQEDQVDPR (K(Dnp)EDQEDQVDPRIVGGK(2Abz))
– | 9.7 and 8.9 and 8.2 | 1.4 and 1.3 and 1.2 | – | PAR 1: QF substrate Lys(Dnp)-X10-X1-IVGG-Lys(Abz), X10-X1 = KATNATLDPR (Table 3 r16) (K(Dnp)ATNATLDPRIVGGK(2Abz); also: template implies Lys(Dnp) before X10 K, letters have one K, taken as Lys(Dnp))
114 | 28.7 | 4.2 | – | Factor XIII: QF substrate Lys(Dnp)-X10-X1-IVGG-Lys(Abz), X10-X1 = TVELQGVVPR (K(Dnp)TVELQGVVPRIVGGK(Abz))
302 | 1.8 | 0.3 | – | Factor V (2): QF substrate Lys(Dnp)-X10-X1-IVGG-Lys(Abz), X10-X1 = NRLAAALGIR (K(Dnp)NRLAAALGIRIVGGK(2Abz))

The next lines start with the substance.

Substance | Specificity Ratio (FIIa/FXa) [1] | Fold-Improved (FpA) [2] | Fold-Improved (PAR-1) [2] | specificity ratio [1] [fold]
Antithrombin: QF substrate Lys(Dnp)-X10-X1-IVGG-Lys(Abz), X10-X1 = ASTAVVIAGR (K(Dnp)ASTAVVIAGRIVGGK(2Abz)) | 0 | 0.001 | 0.000 | –
Osteopontin: QF substrate Lys(Dnp)-X10-X1-IVGG-Lys(Abz), X10-X1 = RGDSVVYGLR (K(Dnp)RGDSVVYGLRIVGGK(Abz)) | 239 | 1.0 | 0.1 | –
PAR 3: QF substrate Lys(Dnp)-X10-X1-IVGG-Lys(Abz), X10-X1 = NLAKPTLPIK (K(Dnp)NLAKPTLPIKIVGGK(2Abz)) | 5 | 0.04 | 0.01 | –
MKPR: QF library substrate Lys(Dnp)-ATNATX4X3PRIVGG-Lys(Abz) with X4-X1 = MKPR (K(Dnp)ATNATMKPRIVGGK(2Abz)) | – | – | – | ~300
Thrombin (3): QF substrate Lys(Dnp)-X10-X1-IVGG-Lys(Abz), X10-X1 = EDSDRAIEGR (K(Dnp)EDSDRAIEGRIVGGK(2Abz)) | 141 | 0.000 | 0.000 | –
Thrombin (2): QF substrate Lys(Dnp)-X10-X1-IVGG-Lys(Abz), X10-X1 = SEYQTFFNPR (K(Dnp)SEYQTFFNPRIVGGK(Abz)) | 0 | 48.7 | 7.1 | –
Factor VIII (2): QF substrate Lys(Dnp)-X10-X1-IVGG-Lys(Abz), X10-X1 = YDEDENQSPR (K(Dnp)YDEDENQSPRIVGGK(2Abz)) | 13 | 2.3 | 0.3 | –
PAR1 (2): QF substrate with X8-X1 = TNATLDPR, prime side IVGG (KTNATLDPRIVGGK) | 4 | – | – | –
WTPR: QF library substrate Lys(Dnp)-ATNATX4X3PRIVGG-Lys(Abz) with X4-X1 = WTPR (K(Dnp)ATNATWTPRIVGGK(2Abz)) | – | – | – | ~300
Factor V (3): QF substrate Lys(Dnp)-X10-X1-IVGG-Lys(Abz), X10-X1 = PDNIAAWYLR (K(Dnp)PDNIAAWYLRIVGGK(2Abz)) | 7 | 0.2 | 0.03 | –
Thrombin (1): QF substrate Lys(Dnp)-X10-X1-IVGG-Lys(Abz), X10-X1 = DQVTVAMTPR (K(Dnp)DQVTVAMTPRIVGGK(2Abz)) | 64 | 73.6 | 10.7 | –
FpB: QF substrate Lys(Dnp)-X10-X1-IVGG-Lys(Abz), X10-X1 = DNEEGFFSAR (K(Dnp)DNEEGFFSARIVGGK(2Abz)) | 1 | 0.7 | 0.1 | –
PAR 4: QF substrate Lys(Dnp)-X10-X1-IVGG-Lys(Abz), X10-X1 = STPSILPAPR (K(Dnp)STPSILPAPRIVGGK(2Abz)) | 40 | 23.1 | 3.4 | –
Factor VIII (1): QF substrate Lys(Dnp)-X10-X1-IVGG-Lys(Abz), X10-X1 = LSKNNAIEPR (K(Dnp)LSKNNAIEPRIVGGK(2Abz)) | – | 32.3 | 4.7 | –
PAR1 (3): QF substrate with X6-X1 = ATLDPR, prime side IVGG (KATLDPRIVGGK) | 4 | – | – | –
